Assay [1] deals with PD-1 (programmed cell death 1; CD279) on tumor infiltrating lymphocytes (human) (UniProt Q15116). Nature of the assay: positive magnetic selection of TIL with M1H4-coupled microbeads.
Assay [2] shares this target. Nature of the assay: flow cytometry, tumour digest OV8074 stained with anti-PD-1 clone EH12.2H7; percent of CD3+ cells.
Assay [3] shares this target. Nature of the assay: positive magnetic selection of REP TIL with EH12.2H7-coupled microbeads; sorted cells stained with secondary mIgG1-PE and aCD3 FITC.
The target is the same in assay [4]. Nature of the assay: flow cytometry, tumour digest H3046 stained with anti-PD-1 clone EH12.2H7; percent of CD3+ cells.
The target is the same in assay [5]. Nature of the assay: flow cytometry, tumour digest M1156 stained with anti-PD-1 clone EH12.2H7; percent of CD3+ cells.
Assay [6] has the same target. Nature of the assay: flow cytometry re-analysis of cells sorted on EH12.2H7 staining, tumour M1156.
Assay [7] has the same target. Nature of the assay: flow cytometry re-analysis of cells sorted on EH12.2H7 staining, tumour OV8074.

A value given as a limit tells only on which side of the number the result lay.

Sequence of UniProt Q15116 (Q15116 25-288): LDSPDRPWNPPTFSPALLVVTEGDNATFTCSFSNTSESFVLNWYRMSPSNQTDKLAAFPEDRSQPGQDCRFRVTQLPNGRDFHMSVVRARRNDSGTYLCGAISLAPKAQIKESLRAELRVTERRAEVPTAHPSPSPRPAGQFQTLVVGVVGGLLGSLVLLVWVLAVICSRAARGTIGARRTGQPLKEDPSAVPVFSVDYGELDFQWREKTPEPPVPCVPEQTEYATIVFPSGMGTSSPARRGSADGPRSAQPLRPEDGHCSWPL

For “CD279 (PD-1) Monoclonal Antibody (Clone-MIH4), eBioscience”, the purity of PD-1+ TIL after magnetic selection in assay [1] was above 85%.

B1: anti-PD-1 antibody clone EH12.2H7 (antibody, from another filing, IgG1, V domains shown)
VH: QVQLQQSGAELAKPGASVQMSCKASGYSFTSSWIHWVKQRPGQGLEWIGYIYPSTGFTEYNQKFKDKATLTADKSSSTAYMQLSSLTSEDSAVYYCARWRDSSGYHAMDYWGQGTSVTVSS
VL: DIVLTQSPASLTVSLGQRATISCRASQSVSTSGYSYMHWYQQKPGQPPKLLIKFGSNLESGIPARFSGSGSGTDFTLNIHPVEEEDTATYYCQHSWEIPYTFGGGTKLEIK
On to B1, for which the Pre-sort % PD-1+ (of CD3+) in assay [2] was 70%; in assay [4] it was 13%; in assay [5], 93%. This molecule also returned a purity of PD-1+ TIL after magnetic selection in assay [3] above 85%. Also, the Post-sort Purity % PD-1+ (of CD3+) in assay [6] turned out to be 100%; in assay [7], 98%.

The values above are taken from patent US20230293685A1.
